# In PMC5153249:
# Tests used:
# Test in all cases: EMSA
# [1] = system: eIF3 (a delta8) (Saccharomyces cerevisiae); details: mean of 2, Met-charged tRNAi, 30 mM HEPES-KOH pH 7.4, 100 mM KOAc, 3 mM Mg(OAc)2, 2 mM DTT, 1 mM GDPNP, 26 C, 2 h, native 4% THEM gel
# [2] = system: eIF3 (a Box37) (Saccharomyces cerevisiae); details: mean of 2, Met-charged tRNAi, 30 mM HEPES-KOH pH 7.4, 100 mM KOAc, 3 mM Mg(OAc)2, 2 mM DTT, 1 mM GDPNP, 26 C, 2 h, native 4% THEM gel
# [3] = system: eIF3 a/b/c sub-complex (Saccharomyces cerevisiae); details: mean of 2, Met-charged tRNAi, 30 mM HEPES-KOH pH 7.4, 100 mM KOAc, 3 mM Mg(OAc)2, 2 mM DTT, 1 mM GDPNP, 26 C, 2 h, native 4% THEM gel
# [4] = system: eIF3 (c GAP85) (Saccharomyces cerevisiae); details: mean of 2, Met-charged tRNAi, 30 mM HEPES-KOH pH 7.4, 100 mM KOAc, 3 mM Mg(OAc)2, 2 mM DTT, 1 mM GDPNP, 26 C, 2 h, native 4% THEM gel
# [5] = system: eIF3 (a H725P) (Saccharomyces cerevisiae); details: mean of 2; Met-charged tRNAi; uncapped mRNA; 30 mM HEPES-KOH pH 7.4, 100 mM KOAc, 3 mM Mg(OAc)2, 2 mM DTT, 1 mM GDPNP, 26 C, 2 h; native 4% THEM gel
# [6] = system: eIF3 WT (a/b/c/i/g) (Saccharomyces cerevisiae); details: Met-charged tRNAi, 30 mM HEPES-KOH pH 7.4, 100 mM KOAc, 3 mM Mg(OAc)2, 2 mM DTT, 1 mM GDPNP, 26 C, 2 h, native 4% THEM gel
# [7] = system: eIF3 (g KLF) (Saccharomyces cerevisiae); details: mean of 2, Met-charged tRNAi, 30 mM HEPES-KOH pH 7.4, 100 mM KOAc, 3 mM Mg(OAc)2, 2 mM DTT, 1 mM GDPNP, 26 C, 2 h, native 4% THEM gel
# [8] = system: eIF3 (a R731I) (Saccharomyces cerevisiae); details: mean of 2; Met-charged tRNAi; uncapped mRNA; 30 mM HEPES-KOH pH 7.4, 100 mM KOAc, 3 mM Mg(OAc)2, 2 mM DTT, 1 mM GDPNP, 26 C, 2 h; native 4% THEM gel
# [9] = system: eIF3 (i Q258R) (Saccharomyces cerevisiae); details: mean of 2, Met-charged tRNAi, 30 mM HEPES-KOH pH 7.4, 100 mM KOAc, 3 mM Mg(OAc)2, 2 mM DTT, 1 mM GDPNP, 26 C, 2 h, native 4% THEM gel
# [10] = system: eIF3 (c delta60) (Saccharomyces cerevisiae); details: mean of 2, Met-charged tRNAi, 30 mM HEPES-KOH pH 7.4, 100 mM KOAc, 3 mM Mg(OAc)2, 2 mM DTT, 1 mM GDPNP, 26 C, 2 h, native 4% THEM gel
# [11] = system: eIF3 (a Box6) (Saccharomyces cerevisiae); details: mean of 2, Met-charged tRNAi, 30 mM HEPES-KOH pH 7.4, 100 mM KOAc, 3 mM Mg(OAc)2, 2 mM DTT, 1 mM GDPNP, 26 C, 2 h, native 4% THEM gel
# [12] = system: eIF3 (c Box12-SPW) (Saccharomyces cerevisiae); details: mean of 2; Met-charged tRNAi; 30 mM HEPES-KOH pH 7.4, 100 mM KOAc, 3 mM Mg(OAc)2, 2 mM DTT, 1 mM GDPNP, 26 C, 2 h; native 4% THEM gel
substance,measurement,setting,value
48S PIC (40S rRNA + Met-tRNAi + AUG model mRNA),Kd,[1]; uncapped mRNA,0.0885 µM
same,Kd,[2]; uncapped mRNA,0.0835 µM
same,Kd,[3]; uncapped mRNA,0.108 µM
same,Kd,[4]; uncapped mRNA,0.038 µM
same,Kd,[5],0.0625 µM
same,Kd,"[6]; mean of 2, uncapped mRNA",0.0375 µM
same,Kd,[7]; uncapped mRNA,0.0525 µM
same,Kd,[8],0.05 µM
same,Kd,[9]; uncapped mRNA,0.0485 µM
same,Kd,[10]; uncapped mRNA,0.0465 µM
same,Kd,[11]; uncapped mRNA,0.038 µM
43S PIC (40S rRNA + Met-tRNAi),Kd,[1],0.087 µM
same,Kd,[2],0.0595 µM
same,Kd,[3],0.0925 µM
same,Kd,[4]; upper limit,0.0265 µM
same,Kd,"[6]; mean of 43, 24, text <=38 nM, upper limit",0.0335 µM
same,Kd,[7]; upper limit,0.0215 µM
same,Kd,[9]; upper limit,0.03 µM
same,Kd,[10]; upper limit,0.024 µM
same,Kd,[11],0.035 µM
same,Kd,[12],0.0665 µM
